According to patent publication US9658208B2, “Methods and G proteins for screening and identifying ligands of G protein-coupled receptors” (Fred Hutchinson Cancer Research Center, priority 2011, dated 2017):

Target: T1, sweet receptor heterodimer (T1R2/T1R3) (Mus musculus, UniProt Q925D8+Q925I4)
T1 construct: expressed in transfected cells; host or cells: HEK-293
T1 sequence (Q925I4 20-843): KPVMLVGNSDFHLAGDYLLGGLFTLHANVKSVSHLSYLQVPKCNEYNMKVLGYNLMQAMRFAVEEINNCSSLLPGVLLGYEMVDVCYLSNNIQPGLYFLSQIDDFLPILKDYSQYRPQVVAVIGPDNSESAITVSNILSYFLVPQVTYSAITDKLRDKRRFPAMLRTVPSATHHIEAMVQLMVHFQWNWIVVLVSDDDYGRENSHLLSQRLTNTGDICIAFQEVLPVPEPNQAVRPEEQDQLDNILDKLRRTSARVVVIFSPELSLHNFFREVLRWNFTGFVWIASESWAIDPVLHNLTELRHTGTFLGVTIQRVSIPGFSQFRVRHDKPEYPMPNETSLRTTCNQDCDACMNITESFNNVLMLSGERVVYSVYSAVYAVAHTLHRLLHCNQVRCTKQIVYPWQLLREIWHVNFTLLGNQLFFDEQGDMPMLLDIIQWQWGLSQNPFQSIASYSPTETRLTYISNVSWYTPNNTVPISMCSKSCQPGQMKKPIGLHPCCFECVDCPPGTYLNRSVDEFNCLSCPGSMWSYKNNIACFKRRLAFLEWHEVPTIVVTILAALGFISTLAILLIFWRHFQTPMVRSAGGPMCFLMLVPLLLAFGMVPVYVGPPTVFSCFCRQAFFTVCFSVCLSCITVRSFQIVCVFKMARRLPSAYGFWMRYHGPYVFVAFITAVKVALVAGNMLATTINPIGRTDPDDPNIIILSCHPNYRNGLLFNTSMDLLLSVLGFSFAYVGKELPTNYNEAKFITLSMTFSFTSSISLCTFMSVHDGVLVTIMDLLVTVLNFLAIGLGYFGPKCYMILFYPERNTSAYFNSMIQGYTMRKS
T1 sequence (Q925D8 21-858): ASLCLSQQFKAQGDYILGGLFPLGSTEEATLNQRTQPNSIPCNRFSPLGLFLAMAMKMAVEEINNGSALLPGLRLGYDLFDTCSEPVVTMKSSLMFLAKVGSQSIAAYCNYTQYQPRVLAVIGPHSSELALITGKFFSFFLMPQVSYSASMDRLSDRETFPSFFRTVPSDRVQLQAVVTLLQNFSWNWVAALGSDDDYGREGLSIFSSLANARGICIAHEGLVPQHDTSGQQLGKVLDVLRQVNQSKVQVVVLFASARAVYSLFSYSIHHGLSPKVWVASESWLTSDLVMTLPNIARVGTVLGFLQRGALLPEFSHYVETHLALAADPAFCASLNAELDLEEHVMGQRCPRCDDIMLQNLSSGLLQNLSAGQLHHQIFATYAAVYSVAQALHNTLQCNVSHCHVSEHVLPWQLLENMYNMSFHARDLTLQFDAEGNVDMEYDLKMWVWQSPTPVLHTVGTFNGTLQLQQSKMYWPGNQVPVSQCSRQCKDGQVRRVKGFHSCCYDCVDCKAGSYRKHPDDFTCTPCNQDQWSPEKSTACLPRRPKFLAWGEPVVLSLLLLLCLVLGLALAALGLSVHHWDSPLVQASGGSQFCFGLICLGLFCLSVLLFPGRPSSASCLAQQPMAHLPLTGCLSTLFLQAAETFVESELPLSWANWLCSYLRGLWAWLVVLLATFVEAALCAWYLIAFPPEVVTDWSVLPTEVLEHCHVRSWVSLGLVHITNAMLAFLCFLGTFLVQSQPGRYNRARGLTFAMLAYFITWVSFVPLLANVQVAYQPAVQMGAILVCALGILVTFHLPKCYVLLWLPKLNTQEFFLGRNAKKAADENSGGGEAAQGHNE
Assay: CRE-SEAP reporter gene assay, coupling with sweet receptor
Assay type: cell-based
Details: HEK-293 cells cotransfected with T1R2 and T1R3; 5 mM saccharin
Description: The GPCRs examined were those that couple with Gαi/Gαo subunits (serotonin 1b, neuropeptide Y1, leukotriene B4, and dopamine D4), Gαq (GNRH, UDP, and calcium-sensing receptors), and the orphan mammalian sweet taste receptor complex (T1R2 and T1R3) with unknown coupling preference. The Gαs-based chimeric G proteins examined in this example were Gαs-Gαi-5, Gαs-Gαt-13 (SEQ ID NO: 3), Gαs-Gαo-13 (SEQ ID NO: 4), Gαs-Gαi-13 (SEQ ID NO: 5), Gαs-Gαz-6 (SEQ ID NO: 18), Gαs-Gα15-13 (SEQ ID NO: 7), Gαs-Gαk-5 (SEQ ID NO: 2), and Gαs-Gαq-13 (SEQ ID NO: 8). The chimeric G protein constructs were prepared as described herein. For the coupling assay, HEK-293 cells were cotransfected with each of the Gαs-based chimeric G protein constructs of interest together with the CRE-SEAP reporter gene construct and a cDNA encoding the GPCR to be tested. The transfected cells were cultured in the presence or absence of a GPCR ligand and then assayed for SEAP activity.
Also tested was whether the chimeric G proteins disclosed herein can be used to detect the activation of GPCRs whose G protein coupling preference is unknown, as is the case with orphan GPCRs. […]
Following transfection, the cells were maintained for 48 hours in 200 ul serum free media containing GPCR ligand. […] Fluorescence was then measured using a CytoFluor 4000 multi well plate reader (Applied Biosystems).

B1: Gαs-Gαt-13: Gαs-based chimeric G protein, final 13 C-terminal amino acids substituted with those of Gαt (protein)
chain: MGCLGNSKTEDQRNEEKAQREANKKIEKQLQKDKQVYRATHRLLLLGAGESGKSTIVKQMRILHVNGFNGEGGEEDVPDYASNSDGEKATKVQDIKNNLKEAIETIVAAMSNLVPPVELANPENQFRVDYILSVMNVPNFDFPPEFYEHAKALWEDEGVRACYERSNEYQLIDCAQYFLDKIDVIKQADYVPSDQDLLRCRVLTSGIFETKFQVDKVNFHMFDVGGQRDERRKWIQCFNDVTAIIFVVASSSYNMVIREDNQTNRLQEALNLFKSIWNNRWLRTISVILFLNKQDLLAEKVLAGKSKIEDYFPEFARYTTPEDATPEPGEDPRVTRAKYFIRDEFLRISTASGDGRHYCYPHFTCAVDTENIRRVFNDCRDIIIKENLKDCGLF
modifications: Chimeric protein
notes: Gαs-based chimeric G protein, final 13 C-terminal amino acids substituted with those of Gαt
increase in SEAP activity: about two
